# Experimental data reported in patent US12358959B2, “Compositions and methods for oligodendrocyte development” (CHILDREN'S MEDICAL CENTER CORPORATION, priority 2016, dated 2025).
# Biological target: T1, GPR56^N (Mus musculus, UniProt Q8K209)
# T1 construct: Using the soluble N-terminal fragment of GPR56 (GPR56^N); made in house
# Test: In vitro biotinylation/proteomics pull-down from mixed glial cell lysate with mass spectrometry
# Conditions: peptide sequences specific for binding to GPR56^N
# From the text: To identify the ligand of GPR56 in OPCs, an in vitro biotinylation/proteomics approach was employed using single-step capture on streptavidin beads to purify the binding partner(s) of GPR56 (FIGS. 2A-2B). Proteins with more than five identified tryptic peptides in the Mass Spectrometry (MS) output from three independent experiments are listed at Table 1.
# (§1) GPR56^N and GPR56^Ndel fusions proteins with either mFc or hFc tag were generated as previously described (Luo et al. Proc Natl Acad Sci USA 108, 12925-12930, 2011). BirA enzyme was used to in vitro biotinylate GPR56^N-mFc-biotag protein as previously described (De Laurenzi and Melino Mol Cell Biol 21, 148-155, 2001). Mixed glial cell lysate was incubated with biotinylated GPR56^N protein in lysis buffer [20 mM Hepes (pH 7.3), 150 mM NaCl, and 5 mM MgCl2] with protein inhibitor mixture (Roche Molecular Biochemicals) and 1% Brij 96 (Fluka). Streptavidin beads (Sigma) were used to affinity purify immunocomplexes. GPR56-associated proteins were eluted in 2×SDS loading buffer, subjected to SDS/PAGE. The whole lane was used for MS at the Taplin Biological Mass Spectrometry at Havard Medical School. MS data were searched against the mouse International Protein Index (IPI mouse 339) database using the protein identification software Mascot (v2.2.04, Matrix Sciences) (Luo et al. Proc Natl Acad Sci USA 108, 12925-12930, 2011).
# as §1, with “al.,” for “al.”, “(Stacey et al., J” for “(De Laurenzi and Melino Mol Cell”, “Chem 277, 29283-29293, 2002).” for “21, 148-155, 2001).”, “(20” for “[20”, “[pH 7.3],” for “(pH 7.3),”, “MgCl2)” for “MgCl2]”
# T1 sequence (Q8K209 26-382 limits assumed): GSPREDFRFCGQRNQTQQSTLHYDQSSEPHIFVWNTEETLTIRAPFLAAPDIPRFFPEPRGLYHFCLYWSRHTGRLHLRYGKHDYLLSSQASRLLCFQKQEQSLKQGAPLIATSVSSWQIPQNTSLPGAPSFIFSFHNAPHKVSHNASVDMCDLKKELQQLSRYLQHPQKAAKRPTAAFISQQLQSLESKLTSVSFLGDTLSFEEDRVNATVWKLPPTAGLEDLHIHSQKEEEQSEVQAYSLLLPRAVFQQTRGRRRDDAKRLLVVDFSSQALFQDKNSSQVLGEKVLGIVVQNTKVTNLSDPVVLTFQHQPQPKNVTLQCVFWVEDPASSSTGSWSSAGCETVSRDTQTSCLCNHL
substance,measurement,setting,value
Transglutaminase 2 [TG2],Peptide Number (Exp1),experiment 1,19
same,Peptide Number (Exp2),experiment 2,20
same,Peptide Number (Exp3),experiment 3,17
